The subject of this series is MS2 coat protein. Briefly: apparent KD of MS2 coat protein; designed switch direction (-1 OFF switch, 1 ON switch): -1; higher = weaker reporter binding. The procedure, abridged: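 Stalled E. coli RNA polymerase transcribed designed RNA switches on Illumina chips, which were then titrated with SNAP-549-labelled MS2 coat protein, doubling from 0.7 or 1.5 nM to 3 µM. Steps lasted from 0.8–1.5 h at the lowest concentration to 10–20 min at the highest. The apparent KD is each design's median over clusters of curve-fitted normalised fluorescence.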

Setting [1] is: Eterna round: R95, input ligand: microRNA oligo, concentration not stated.
[2] abbreviates: input ligand: microRNA oligo, concentration not stated.

Turning to “UCGGCGCGAGGAUAUACGGUUGCUUUUUAGGGUCGUGGCGUACAUGAGGAUCACCCAUGUAGAAGGCGCGCCGC [Apr-15 SS2-30] (puzzle: Exclusion 2)”, the “apparent KD of MS2 coat protein” value under setting [1] stood at 13.8 nM.
On to “UCGGCGCGAGGAUAUACGUUUGCGCGUUUUCGUUUGCGCGUACAUGAGGAUCACCCAUGUAGAAGGCGCGCCGC [Apr-15 SS2-14] (puzzle: Exclusion 2)”, for which, under setting [1], the “apparent KD of MS2 coat protein” value turned out to be 13.2 nM.
On to “UCGGCGCGAGGAUAUGCGGUUCCUGCUUCGGGCCGGAGCGUACAUGAGGAUCACCCAUGUAGAAGGCGCGCCGC [Apr-15 SS2-38] (puzzle: Exclusion 2)”, for which the “apparent KD of MS2 coat protein” value under setting [1] worked out at 12.1 nM.
As for “UCUAUUUUGCGAGGAUAUCGACCAUUCCUCUUUACAUGAGGAUCACCCAUGUUCUUUUUCUACAACGAGAAGGCGCUCUAAGUU [JR_ExcNG2_Sub061] (Eterna round: R96, puzzle: Exclusion NG 2)”, the “apparent KD of MS2 coat protein” value by setting is: (input ligand: FMN 200 uM) 71.9 nM; under setting [2], 65 nM; (input ligand: none) 59.1 nM.
The corresponding values for “UCUCCCUGGCAAGGAUAUCCUGUGCGGUUCCGGCUCGUGUCUGUUACAUGAGGAUCACCCAUGUGGGAGAAGGUGCCUGUGGCU [Design 92] (Eterna round: R96, puzzle: Exclusion NG 2)” are 346 nM, 93.7 nM and 143 nM.
On to “UCUCGCGGGCAAGGAUAUCCCACGCUGUUCUGGCCCGUGUCUGUUACAUGAGGAUCACCCAUGUGGGAGAAGGUGCACCAGGGC [Design 43] (Eterna round: R96, puzzle: Exclusion NG 2)”, for which the “apparent KD of MS2 coat protein” value was 30.9 nM (input ligand: FMN 200 uM), 16.8 nM under setting [2] and 29.4 nM (input ligand: none).
As for “UCUCGGUAAGGAUAUGCGCCGGGAUGAAGAUCCCGAAGCAUGCAGAAGGUACAUGAGGAUCACCCAUGUCUGUU [Eternabot (L1) Solution 76] (Eterna round: R97, puzzle: Exclusion 4)”, the “apparent KD of MS2 coat protein” value runs as follows: (input ligand: FMN 200 uM) 47.2 nM; (input ligand: none) 20.5 nM.
For “UCUCUUGGGCAAGGAUAUCCUGCGCGGUUCCGGUUCGUGUCUGUCACAUGAGGAUCACCCAUGUGGGAGAAGGUGCCUGCGGUG [Design 75] (Eterna round: R96, puzzle: Exclusion NG 2)”, the “apparent KD of MS2 coat protein” value is, setting by setting: (input ligand: FMN 200 uM) 32.5 nM; under setting [2], 15.8 nM; (input ligand: none) 17.3 nM.
On to “UCUGGAGCAGGAUAUAUAUGACGUGCUUCGGCACGAAGGUCACAUGAGGAUCACCCAUGUAGAAGGGCUCCAGA [E2/9-D2] (Eterna round: R97, puzzle: Exclusion 2)”, for which the “apparent KD of MS2 coat protein” value was found to be 344 nM (input ligand: FMN 200 uM) and 43.6 nM (input ligand: none).
As for “UCUUAUCUAUAGGAUAUAGGAGCAGAAUUGCGAUUAGAAGGAUGGACAUGAGGAUCACCCAUGUGCAUGGGCUU [EX6 B.6] (Eterna round: R97, puzzle: Exclusion 6)”, the “apparent KD of MS2 coat protein” value (input ligand: FMN 200 uM) was 17.9 nM and the “apparent KD of MS2 coat protein” value (input ligand: none) was found to be 30.6 nM.
The like results for “UCUUUGUUUGUGAGGAUAUCGGUGGAAUGGAUUGUCGAGAAGGCACAUGAGGAUCACCCAUGUGUGGGACAGCA [JR_BMEx4_Sub026] (Eterna round: R97, puzzle: Brourd's mod of Exclusion 4)” were, in that order, 24.3 nM and 22.3 nM.
The corresponding values for “UGAAGUAGAGGAUAUACGUGGAAAUAGAUUCAUGUAAAACUACAUGAGGAUCACCCAUGUAGAAGGCUAUAGAU [JR_Ex2_Sub072] (Eterna round: R97, puzzle: Exclusion 2)” are 28.4 nM and 49 nM.
For the sequence “UGAGCUUACGCAGGAUAUGAGGAUCACCCAUAGAAGGAUAUCGAAAGAGAAGGUCUGAGGAUUACCCAGAAGGGCGUGGGCUCU [pwkr exNG2 2xF5 2xFMN.11] (Eterna round: R96, puzzle: Exclusion NG 2)”, the “apparent KD of MS2 coat protein” value runs as follows: (input ligand: FMN 200 uM) 1290 nM; under setting [2], 125 nM; (input ligand: none) 131 nM.
With “UGAGCUUCAGGAUAUAUGUGGCGACCGUGAGGUCGAAGGUUACAUGAGGAUCACCCAUGUAGAAGGGAAGUUCU [Mat - Exclusion 2 - JL Mod - D19] (Eterna round: R97, puzzle: Exclusion 2)”, the “apparent KD of MS2 coat protein” value is, setting by setting: (input ligand: FMN 200 uM) 181 nM; (input ligand: none) 62.2 nM.
As to “UGAGCUUGUGUGAGGAUAUUUCGAGUGAAAGCUUGAGAGAAGGCACAUGAGGAUCACCCAUGUAAGCGAGUUCG [-26.1, -24 kcal, A 28%, 1bis-1] (Eterna round: R97, puzzle: Brourd's mod of Exclusion 4)”, the “apparent KD of MS2 coat protein” value turned out to be 84.2 nM (input ligand: FMN 200 uM) and 86.8 nM (input ligand: none).
Turning to “UGAGUGCUGCGAGGAUAUACAUGAGGAUCACCCAUGUGGAUGUCUGAGGCAAAGCCUCAGACAAUGUAGAAGGCGCAGUACUCU [Mat - Exclusion NG 2 - Mod of JL - D55] (Eterna round: R96, puzzle: Exclusion NG 2)”, the “apparent KD of MS2 coat protein” value is 96.1 nM (input ligand: FMN 200 uM), 16.6 nM under setting [2] and 25.2 nM (input ligand: none).

The values above are taken from the supplement of paper PMC9170038.
